Columns and labels:
[1] = target: HSP70 (antigen; source and nucleotide state not stated) (Homo sapiens (Human)) (UniProt P0DMV8); assay: Octet epitope binning, sandwich format on HSP70; table row C92F3-5, column C92F3-5 (self pair)
[2] = target: HSP70 (antigen; source and nucleotide state not stated) (Homo sapiens (Human)) (UniProt P0DMV8); assay: Octet epitope binning, sandwich format on HSP70; table row m77A (named as competitor), column C92F3-5; the sheet does not say which of row and column was loaded first
[3] = target: HSP70 (antigen; source and nucleotide state not stated) (Homo sapiens (Human)) (UniProt P0DMV8); assay: Octet epitope binning, sandwich format on HSP70; table row N15F2-5 (named as competitor), column C92F3-5; the sheet does not say which of row and column was loaded first
[4] = target: HSP70 (antigen; source and nucleotide state not stated) (Homo sapiens (Human)) (UniProt P0DMV8); assay: Octet epitope binning, sandwich format on HSP70; table row N15F2-5, column N15F2-5 (self pair)
[5] = target: HSP70 (antigen; source and nucleotide state not stated) (Homo sapiens (Human)) (UniProt P0DMV8); assay: Octet epitope binning, sandwich format on HSP70; table row m77A (named as competitor), column N15F2-5; the sheet does not say which of row and column was loaded first
[6] = target: HSP70 (antigen; source and nucleotide state not stated) (Homo sapiens (Human)) (UniProt P0DMV8); assay: Octet epitope binning, sandwich format on HSP70; table row C92F3-5 (named as competitor), column N15F2-5; the sheet does not say which of row and column was loaded first

Sequence of HSP70 (antigen; source and nucleotide state not stated) (Homo sapiens (Human)) (P0DMV8 whole entry): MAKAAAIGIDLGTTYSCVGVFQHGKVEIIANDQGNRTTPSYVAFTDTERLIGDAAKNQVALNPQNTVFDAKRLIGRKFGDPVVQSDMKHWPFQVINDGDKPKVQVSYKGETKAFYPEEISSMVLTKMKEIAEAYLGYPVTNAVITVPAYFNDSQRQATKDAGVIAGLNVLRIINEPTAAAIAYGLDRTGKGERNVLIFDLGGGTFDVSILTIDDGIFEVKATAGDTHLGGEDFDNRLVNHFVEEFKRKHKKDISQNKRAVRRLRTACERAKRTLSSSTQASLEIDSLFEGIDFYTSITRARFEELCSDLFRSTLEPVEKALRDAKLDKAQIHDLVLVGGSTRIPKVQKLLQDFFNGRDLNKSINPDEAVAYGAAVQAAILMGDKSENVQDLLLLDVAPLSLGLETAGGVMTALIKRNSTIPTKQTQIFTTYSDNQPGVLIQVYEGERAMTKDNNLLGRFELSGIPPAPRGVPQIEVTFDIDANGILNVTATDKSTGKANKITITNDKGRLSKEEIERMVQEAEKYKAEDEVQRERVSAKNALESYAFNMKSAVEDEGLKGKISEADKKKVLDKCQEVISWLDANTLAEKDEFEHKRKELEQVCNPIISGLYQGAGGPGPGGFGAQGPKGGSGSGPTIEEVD

percent of maximal binding in the presence of the potentially competing antibody [1]	percent of maximal binding in the presence of the potentially competing antibody [2]	percent of maximal binding in the presence of the potentially competing antibody [3]	percent of maximal binding in the presence of the potentially competing antibody [4]	percent of maximal binding in the presence of the potentially competing antibody [5]	percent of maximal binding in the presence of the potentially competing antibody [6]	Substance
0	0.714	0.492				C92F3-5 (Fisher Scientific) (antibody)
			0	0.738	0.489	N15F2-5 (Enzo Life Sciences) (antibody)
